{
  "source": "patent US20050261472A1",
  "about": "“Binding moieties for fibrin” (Dyax Corp., priority 1999, published 2005)",
  "molecules": {"B1": {"name": "TN7 isolate 4, phage-displayed DPCSYYGTCLH (peptide)", "peptide": "DPCSYYGTCLH", "modifications": "not fully specified (bridges); cysteine pairing not given here", "notes": "Tested as a phage clone; not shown: not specified"}, "B2": {"name": "TN7 isolate 5, phage-displayed LPCSYYGTCLH (peptide)", "peptide": "LPCSYYGTCLH", "modifications": "not fully specified (bridges); cysteine pairing not given here", "notes": "as for B1"}, "B3": {"name": "TN7 isolate 6, phage-displayed FACHYYGTCLH (peptide)", "peptide": "FACHYYGTCLH", "modifications": "not fully specified (bridges); cysteine pairing not given here", "notes": "as for B1"}, "B4": {"name": "TN7 isolate 7, phage-displayed LACHYYGTCLH (peptide)", "peptide": "LACHYYGTCLH", "modifications": "not fully specified (bridges); cysteine pairing not given here", "notes": "as for B1"}, "B5": {"name": "TN7 isolate 8, phage-displayed DGCHYYGTCLH (peptide)", "peptide": "DGCHYYGTCLH", "modifications": "not fully specified (bridges); cysteine pairing not given here", "notes": "as for B1"}},
  "note": "Ends that are not written are not given here.",
  "data": [
    {"target": "T1, human serum albumin (human, UniProt P02768 25-609)", "T1 construct": "also called HSA", "T1 sequence (P02768 25-609 limits assumed)": "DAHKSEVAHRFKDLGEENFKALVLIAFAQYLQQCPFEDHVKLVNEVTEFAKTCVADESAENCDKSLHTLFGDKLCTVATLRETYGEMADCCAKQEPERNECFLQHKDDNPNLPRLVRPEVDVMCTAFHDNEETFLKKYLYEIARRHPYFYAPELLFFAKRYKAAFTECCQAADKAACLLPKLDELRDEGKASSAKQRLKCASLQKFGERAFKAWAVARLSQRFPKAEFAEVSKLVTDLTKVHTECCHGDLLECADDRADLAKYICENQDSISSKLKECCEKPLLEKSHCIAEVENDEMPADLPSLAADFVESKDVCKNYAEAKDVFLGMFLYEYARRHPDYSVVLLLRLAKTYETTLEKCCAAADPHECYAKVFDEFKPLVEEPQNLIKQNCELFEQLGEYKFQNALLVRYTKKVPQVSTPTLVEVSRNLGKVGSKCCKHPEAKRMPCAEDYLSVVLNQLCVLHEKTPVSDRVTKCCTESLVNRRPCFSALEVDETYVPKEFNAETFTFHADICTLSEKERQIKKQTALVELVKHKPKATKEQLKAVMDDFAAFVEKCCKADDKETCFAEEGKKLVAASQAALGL", "experiment": "phage ELISA on immobilised HSA", "conditions": "not given", "method": "(§1) After five rounds of selection, the eluted phage were propagated and a portion plated to isolate phage plaques arising from individual clones. Ninety such clones were selected randomly, propagated, and tested individually for binding to fibrin in a dried fibrin plate assay. Dried fibrin plates were prepared as described above for the library screening. Phage samples (˜10⁹ phage each) were incubated in the dried fibrin plate wells in binding buffer (50 mM Tris, 150 mM NaCl, 2 mM CaCl₂, 0.05% Tween-20) containing 0.1% HSA. After 1 hour, the plates were washed 5 times with binding buffer. Anti-M13 antibody conjugated to horseradish peroxidase (Pharmacia) was added at 1/5000 dilution in binding buffer to the wells and incubated with the fibrin for 1 hour. The wells were again washed 5 times with binding buffer and the presence of the antibody/phage/fibrin complex was measured with HRP calorimetric reagents (3,3′,5,5′-tetrarnethylbenzidine (TMB) and H₂O₂). A high absorbance at 595 nm (due to oxidized TMB) was indicative of a tight phage/fibrin interaction, and phage clones corresponding to those wells were identified as bearing fibrin-binding moieties.\n(§2) These fibrin-binding positive clones were subjected to several secondary ELISA assays. These assays followed a similar protocol to that detailed above for the dried fibrin ELISA assay, the only variations being the method of target immobilization and the omission of HSA from binding and wash buffers. A screen against DD(E) acted as a further confirmation of fibrin binding activity. An ELISA screen against fibrinogen (immobilized to the plate by the biotin/streptavidin protocol used for DD(E)) was a check against fibrinogen binding and confirmed that the negative selection procedure detailed in Example 2 had been effective. Finally, ELISAs to assay binding to immobilized HSA (passively bound to the polystyrene plate) and a target-free microtiter plate were controls to eliminate phage that bound promiscuously or nonspecifically.", "values": [
      {"molecule": "B1", "binding result": "no binding"},
      {"molecule": "B2", "binding result": "no binding"},
      {"molecule": "B3", "binding result": "no binding"},
      {"molecule": "B4", "binding result": "no binding"},
      {"molecule": "B5", "binding result": "no binding"}
    ]},
    {"target": "T2, fibrin (Homo sapiens, UniProt P02671+P02675+P02679)", "T2 construct": "Thrombin cleavage at the Arg16-Arg17 bond in the Ax chains and at the Arg14-Gly15 bond on the BP chains releases fibrinopeptides A and B; host or cells: fibrinogen solution clotted with thrombin in 96-well plates and dried at 37 C", "T2 sequence (P02671 36-629 limits assumed)": "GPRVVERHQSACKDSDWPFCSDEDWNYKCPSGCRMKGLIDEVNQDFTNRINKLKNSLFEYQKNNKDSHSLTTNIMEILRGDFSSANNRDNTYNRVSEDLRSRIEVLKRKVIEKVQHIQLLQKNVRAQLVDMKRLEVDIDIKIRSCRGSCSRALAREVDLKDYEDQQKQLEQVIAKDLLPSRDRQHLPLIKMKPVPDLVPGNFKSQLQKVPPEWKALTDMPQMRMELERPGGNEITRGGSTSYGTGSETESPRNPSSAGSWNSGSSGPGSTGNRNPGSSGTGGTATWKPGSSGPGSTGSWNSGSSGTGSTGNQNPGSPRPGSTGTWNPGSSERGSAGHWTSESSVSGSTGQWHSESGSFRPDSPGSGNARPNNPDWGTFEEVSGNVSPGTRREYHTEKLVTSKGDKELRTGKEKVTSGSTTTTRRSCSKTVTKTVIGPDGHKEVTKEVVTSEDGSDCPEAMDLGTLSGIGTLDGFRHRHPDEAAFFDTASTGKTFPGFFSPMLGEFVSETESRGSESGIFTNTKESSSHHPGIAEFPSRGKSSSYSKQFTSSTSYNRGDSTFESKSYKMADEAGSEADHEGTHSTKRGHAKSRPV", "T2 sequence (P02675 45-491 limits assumed)": "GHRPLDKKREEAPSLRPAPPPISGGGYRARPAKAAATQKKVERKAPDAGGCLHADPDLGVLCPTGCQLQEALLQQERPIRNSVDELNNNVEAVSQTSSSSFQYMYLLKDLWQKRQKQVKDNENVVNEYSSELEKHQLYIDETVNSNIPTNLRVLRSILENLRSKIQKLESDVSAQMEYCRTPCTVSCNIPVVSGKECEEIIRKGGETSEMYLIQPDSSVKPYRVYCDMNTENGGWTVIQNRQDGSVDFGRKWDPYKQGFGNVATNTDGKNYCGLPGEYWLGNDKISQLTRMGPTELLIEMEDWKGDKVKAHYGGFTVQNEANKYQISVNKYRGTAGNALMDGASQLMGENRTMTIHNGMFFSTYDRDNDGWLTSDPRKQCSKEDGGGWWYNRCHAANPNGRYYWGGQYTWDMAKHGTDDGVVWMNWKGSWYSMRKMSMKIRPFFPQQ", "T2 sequence (P02679 27-437 isoform P02679-2 limits assumed)": "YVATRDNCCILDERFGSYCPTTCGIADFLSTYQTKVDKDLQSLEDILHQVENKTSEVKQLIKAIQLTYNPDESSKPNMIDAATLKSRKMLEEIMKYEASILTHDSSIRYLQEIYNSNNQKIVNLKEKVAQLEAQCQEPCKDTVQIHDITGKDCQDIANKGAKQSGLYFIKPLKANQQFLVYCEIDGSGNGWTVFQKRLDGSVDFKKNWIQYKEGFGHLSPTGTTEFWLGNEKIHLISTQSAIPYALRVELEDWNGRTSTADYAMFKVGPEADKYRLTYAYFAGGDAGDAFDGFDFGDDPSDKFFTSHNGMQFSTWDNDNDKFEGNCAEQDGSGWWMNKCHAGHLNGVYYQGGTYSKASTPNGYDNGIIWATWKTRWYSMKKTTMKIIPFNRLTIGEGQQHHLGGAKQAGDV", "experiment": "dried fibrin plate ELISA of phage isolates", "type": "binding", "conditions": "phage isolates from TN7 library; symbols not defined", "method": "For screening libraries to isolate binding moieties for fibrin, two fibrin targets, i.e., synthetic fibrin clots and then a soluble fibrin fragment, DD(E), were prepared. To prepare fibrin for screening, dilute fibrin clots were formed in the wells of a 96-well plate, dried down to a thin layer, and then rehydrated prior to library screening. In a typical procedure, a 0.15 mg/ml fibrinogen solution was prepared in TBS buffer (50 mM Tris, 150 mM NaCl, pH 7.4). A solution containing 2 U/ml thrombin, 10 mM CaCl2, and 5 mM ε-aminocaproic acid in TBS was prepared. The fibrinogen solution and thrombin solution were mixed 1:1 in the wells of a 96-well plate, aliquoting 25 μL of each solution in each well (total volume=50 μL). The plates were evaporated to dryness by incubating them at 37° C. overnight. Just before a phage library was added to the dried fibrin target, the fibrin wells were washed three times for 10 minutes with phage blocking buffer (TBS containing 2 mM CaCl2, 0.1% Tween-20, and 0.1% human serum albumin (HSA)).\nas §1, with “(˜10^9” for “(˜10⁹”, “CaCl2,” for “CaCl₂,”, “H2O2).” for “H₂O₂).”\nThe amino acid sequence data from these phage isolates were sorted according to the degree of similarity and response in the fibrin ELISA assay.", "values": [
      {"molecule": "10 (FSCWYSLHCHR; synthetic fibrin binding peptide) [compound 10]", "relative binding": "+ + +"},
      {"molecule": "4 (YYGT; recurrent motif among synthetic fibrin binding peptides) [compound 4]", "relative binding": "+ + +"},
      {"molecule": "9 (LPCDYYGTCLD; synthetic fibrin binding peptide) [compound 9]", "relative binding": "+ + +"},
      {"molecule": "8 (RPCDYYGTCFD; synthetic fibrin binding peptide) [compound 8]", "relative binding": "+ + +"},
      {"molecule": "5 (RSCNYYGTCLH; synthetic fibrin binding peptide) [compound 5]", "relative binding": "+ + +"},
      {"molecule": "6 (HDCQYYGTCLH; synthetic fibrin binding peptide) [compound 6]", "relative binding": "+ + +"},
      {"molecule": "7 (FACHYYGTCLH; synthetic fibrin binding peptide) [compound 7]", "relative binding": "+ + +"}
    ]},
    {"target": "T3, fibrinogen (UniProt P02671 20-629; P02675 31-491; P02679 27-437, limits assumed)", "T3 sequence (looked up) 1": "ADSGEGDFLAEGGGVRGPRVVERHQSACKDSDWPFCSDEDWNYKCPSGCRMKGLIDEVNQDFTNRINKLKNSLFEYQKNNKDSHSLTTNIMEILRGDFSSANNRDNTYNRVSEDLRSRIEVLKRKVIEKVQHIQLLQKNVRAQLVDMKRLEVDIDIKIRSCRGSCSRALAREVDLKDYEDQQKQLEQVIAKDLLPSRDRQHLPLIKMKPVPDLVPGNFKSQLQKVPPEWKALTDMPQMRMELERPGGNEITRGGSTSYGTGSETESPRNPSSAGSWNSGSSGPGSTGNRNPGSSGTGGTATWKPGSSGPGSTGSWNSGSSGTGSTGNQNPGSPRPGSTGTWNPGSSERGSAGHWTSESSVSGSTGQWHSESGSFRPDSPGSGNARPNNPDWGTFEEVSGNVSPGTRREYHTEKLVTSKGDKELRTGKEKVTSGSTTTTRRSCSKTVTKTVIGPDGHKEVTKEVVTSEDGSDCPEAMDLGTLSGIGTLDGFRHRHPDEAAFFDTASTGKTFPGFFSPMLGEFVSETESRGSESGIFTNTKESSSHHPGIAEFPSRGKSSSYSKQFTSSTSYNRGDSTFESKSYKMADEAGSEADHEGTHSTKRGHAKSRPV", "T3 sequence (looked up) 2": "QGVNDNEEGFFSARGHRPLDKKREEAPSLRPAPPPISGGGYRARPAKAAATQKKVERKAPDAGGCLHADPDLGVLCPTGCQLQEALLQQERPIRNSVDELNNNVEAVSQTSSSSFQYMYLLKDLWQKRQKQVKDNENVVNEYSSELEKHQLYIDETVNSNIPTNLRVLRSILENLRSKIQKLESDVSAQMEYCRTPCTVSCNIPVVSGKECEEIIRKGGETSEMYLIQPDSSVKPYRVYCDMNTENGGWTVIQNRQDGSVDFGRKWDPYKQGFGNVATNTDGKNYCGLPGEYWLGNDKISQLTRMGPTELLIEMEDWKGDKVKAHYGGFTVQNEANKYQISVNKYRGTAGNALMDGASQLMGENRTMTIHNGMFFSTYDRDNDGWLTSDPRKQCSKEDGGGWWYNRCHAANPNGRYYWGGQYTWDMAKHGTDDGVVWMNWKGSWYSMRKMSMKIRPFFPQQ", "T3 sequence (looked up) 3": "T2 sequence (P02679 27-437 isoform P02679-2 limits assumed)", "experiment": "phage ELISA on immobilised fibrinogen", "conditions": "not given", "method": "as §1, §2", "values": [
      {"molecule": "B1", "binding result": "no binding"},
      {"molecule": "B2", "binding result": "no binding"},
      {"molecule": "B3", "binding result": "no binding"},
      {"molecule": "B4", "binding result": "no binding"},
      {"molecule": "B5", "binding result": "no binding"}
    ]}
  ]
}
